Measured values taken from paper PMC10533412, “Phosphoantigens glue butyrophilin 3A1 and 2A1 to activate Vγ9Vδ2 T cells” (Nature, 2023).

Columns and labels:
[1] = biological target: BTN2A1 B30.2 domain (UniProt Q7KYR7); experiment: ITC; conditions: with HMBPP
[2] = biological target: HMBPP; experiment: ITC
[3] = biological target: VpBTN3 butyrophilin full intracellular domain (BFI) (alpaca (Vicugna pacos)); experiment: ITC; with IPP; conditions: domain or fragment
[4] = biological target: VpBTN3 butyrophilin full intracellular domain (BFI) (alpaca (Vicugna pacos)); experiment: ITC; with DMAPP; conditions: domain or fragment
[5] = biological target: VpBTN3 butyrophilin full intracellular domain (BFI) (alpaca (Vicugna pacos)); experiment: ITC; with HMBPP; conditions: domain or fragment

Sequence of BTN2A1 B30.2 domain (Q7KYR7 whole entry, looked up, tested part not stated): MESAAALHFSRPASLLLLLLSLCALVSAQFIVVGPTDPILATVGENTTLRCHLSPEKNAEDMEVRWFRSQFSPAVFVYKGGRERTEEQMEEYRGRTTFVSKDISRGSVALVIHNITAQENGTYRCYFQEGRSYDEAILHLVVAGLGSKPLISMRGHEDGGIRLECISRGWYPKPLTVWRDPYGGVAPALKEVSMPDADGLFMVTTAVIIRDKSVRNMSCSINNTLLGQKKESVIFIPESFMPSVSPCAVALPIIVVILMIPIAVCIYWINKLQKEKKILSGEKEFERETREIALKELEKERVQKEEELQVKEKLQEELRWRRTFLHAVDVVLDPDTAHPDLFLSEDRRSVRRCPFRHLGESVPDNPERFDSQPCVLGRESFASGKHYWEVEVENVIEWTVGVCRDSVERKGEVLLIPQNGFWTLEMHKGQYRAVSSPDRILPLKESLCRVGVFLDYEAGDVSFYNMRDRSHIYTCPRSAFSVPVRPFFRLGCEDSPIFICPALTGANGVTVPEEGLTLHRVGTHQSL

Kd [1]	Kd [2]	Kd [3]	Kd [4]	Kd [5]	Substance
0.46 µM	10.9 µM				BTN3A3 B30.2 R351H
		191 µM	46.5 µM	0.658 µM	VpBTN2 butyrophilin full intracellular domain (BFI)
